Assay results published in the nanobody polyreactivity screen of Harvey et al. (2022).

Assay: yeast display, Sf9 membrane polyspecificity reagent, FACS + sequencing; frameworks hold sequencing errors
How it was run: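 Nanobodies came from a synthetic yeast display library in Saccharomyces cerevisiae BJ5465, induced with galactose for 36–48 hours and stained for 1 hour at 4 °C with 10% biotinylated, detergent-solubilized Sf9 membrane reagent. Cells were enriched on streptavidin microbeads and then FACS-sorted, with low and high (top ~1%) gates set on anti-HA fluorescence for expression and streptavidin fluorescence for reagent binding. Each polyreactivity label reflects the gate a clone came from. Genes were amplified by colony PCR, sequenced by MiSeq 2 × 250 and filtered by CDR length.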
In the case of “QVQLVESGGGLLQAGGRLRLSCAASGFTSTRYAMGWYRQAPGKERELVAAISYGGGDTYYADSVKGRFTISRDNAKNTVYIQMNSMKPEDTAVYYCSSRLRSRNTRLYHWGQGTQGTVSS”, the “polyreactivity (PSR sort gate)” value is reported as “high polyreactivity”.
For “QVQLVESGGGLVPAGGSLRLSCAASGLTFGRYAMRSYRQAPGKEREMVARISRSGGRTYYADSVKGRFTISRDNAKNTVYLQMNSLKPEDTAVYYCAATGSYYGGDHDYWGQGTQVTVSS”, the “polyreactivity (PSR sort gate)” value was “high polyreactivity”.
With “QVQLVESGGGLVQAGGSLRLSCAASGRIFKINAMGWYRQAPGKERELVAAITRSGGTTYYADSVMGRFTISRDHAKNTVYLQMNSLKPEDTAVYYCAARVVQYPYYYWGQGTQVTVSS” the “polyreactivity (PSR sort gate)” value was “high polyreactivity”.
With “QVQLVESGGGLVQAGGSLRLSCAASGYIFQKNAMGWYRQAPGKERELVAAISSGTDRTYYADSVKGRFTISRDNAKYTVYLQMNSLKPDDTAVYYCAARYWGGYYYWGQGTQVTVSS” the “polyreactivity (PSR sort gate)” value was “high polyreactivity”.
For “QVQLVESGGGLVQAGGSLRLSCAASGSTFSEYAMGWYRQAPGKERELVAAISETGGRTYYADSVKGRFTISRDNAKNTVYLQMNSLKPEDTAVYYCAVDHLTRSGDGEYWGQGTQVTVSS”, the “polyreactivity (PSR sort gate)” value was “high polyreactivity”.
In the case of “QVQLVESGGGLVQAGGSLRLSCAASGLTFEHNAMGWYRQAPGKEREFVAVISWRGTSTYYADSVKGRFTISRDNAKNTVYLQMNSLKPEDTPVYYCATRYYGDDGYRYDHWGQGTQVTVSS”, the “polyreactivity (PSR sort gate)” value is reported as “high polyreactivity”.
In the case of “QVQLVESGGGLVQAGGSLRLSCAASGSIFAGYAMGWYRQAPGKERELVAAITSRGGNTYYADSVKGRFTISRDNAKNTVYLQMNSLKPEDTAVYYCAADVTRWSWVGTHYYWGQGTQVTVSS”, the “polyreactivity (PSR sort gate)” value is reported as “high polyreactivity”.
For “QVQLVESGGGLVQAGGSIRLSCAASGNIFVSYAMGWYRQAPAKERELVAAISKSGGSTYYADSVKGRFTISRDNAKNTVYLQMNSLKPEDTAVYYCAARWYNRVKYQKYNYWGQGTQVTVSS”, the “polyreactivity (PSR sort gate)” value was “high polyreactivity”.
With “QVQLVESVGGLVQAGGSLRISCAASGSTLTRNTMGWYRPAPGKEREFVATITRSGGSTYYADSVKGRFTISRDNAKNTVYLQMNSLKPEDTAVYYCAVRRQTFRYVYPGMDYWGQGTQVTVSS” the “polyreactivity (PSR sort gate)” value was “high polyreactivity”.
In the case of “QVQLVESGAGLVQAGGSLRLSCAPSGRTFGYNAMGWYRQAPGKERELVATISSSTVSTSYADSVKGRFTISRDNAKNTVYLQMNSLKPEDTAVYYCNARSRVSPTERVPYDSWGHGTQVTVSS”, the “polyreactivity (PSR sort gate)” value is reported as “low polyreactivity”.
For “QVQLVESGGGLVQAGGSLRLSCAASGSIFTLYSMGWYRQAPGKERELVATINWSGGSTSYADSVKGRFTISRDNAKYTVYLQMNSLKADDTAVYYCAADYYFWHGTGYDYWGQGTQVNVSS”, the “polyreactivity (PSR sort gate)” value was “low polyreactivity”.
With “QVQLVESGGGLVQAGGSLRLSCAASGSTFTGNDMGWYRQAPGKERELVASIRRGDRTYYADSVKGRFTISRDNAKNTVYLQMNSLKREDTAVYYCAKPVWWRVYRHGGRFGYWGQGTQVTVSS” the “polyreactivity (PSR sort gate)” value was “low polyreactivity”.
In the case of “QVQLVESGGGLVQAGGSLRLISAASGSIFDEYAMGWYRQAPGKERELVAAISSSGTSTYYADSVKGRFTISRDNAKNTVYLQMNSLKPEYTAVYYCAARSAFLKSGYLMDYWGHGTQVTVSS”, the “polyreactivity (PSR sort gate)” value is reported as “low polyreactivity”.
For “QVQLVESGGGLVQAGGSLRLSCAASGSIFLGYAMGWYRQAPGKERELVAAISWTGGSTYYADSVKGRFTISRDNAKNTVYLQMNSLTPEDTAVYYCAAEDQYGFDYWGQGTQVTVYS”, the “polyreactivity (PSR sort gate)” value was “high polyreactivity”.
For “QVQLVESGGGLFQAGGSLRISCAASGSIFRSYAMGWYRQAPGKERELVASISRRGGSTYYADSVKGRFTISRDNAKNTVYLQMNSLKPEDTAVYYCAAVRYNSRVSTTPSEMYYWGQGTQVTVSS”, the “polyreactivity (PSR sort gate)” value was “low polyreactivity”.
In the case of “QVQLVESGGGLVQAGGSLRLSCAASGSIFRPYAMGWYRQAPGKERELVAAISWRSGRTYYADSVKGRFTISRDNAKNTVYLQMNSLKPEDTAVYYCAADLASYAYRYDYWGQGTQVTVSS”, the “polyreactivity (PSR sort gate)” value is reported as “high polyreactivity”.
For “QGQLLESAGGLLQAGGSLRLSSAASGFNFQQYVMGWYRQARGNERELVASISRRGSRTYYADSVKGGFTISRDNAKNTVYLQMNSLKPEDTAVYYCAAPPSTSEGPYGYWGQGTQVSVSS”, the “polyreactivity (PSR sort gate)” value was “high polyreactivity”.
For “QVQLVESGGGLVQAGGSLRLSCAASGRTFSHNAMGWYRQAPGKERELVATINSGGSTYADSVKGRFTISRDNAKNTVYLQMNSLKPEDTAVYYCNAAHGSRAFFGGYDYWGQGTQVTVSS”, the “polyreactivity (PSR sort gate)” value was “high polyreactivity”.
For “QVQLVESGGGLVQAGGSLRLSCAASGSIFTKYAMGWYRQAPGKERELVAAINARGGSTYYADSVKGRFTISRDNAKNTVYLQMNSLKPEDTAVYYCAARYGVGRADYYWGQGTQVTVSS”, the “polyreactivity (PSR sort gate)” value was “high polyreactivity”.
With “QVQLVESVGGLVQAGGSLRLICAASGLTFEWYTMGWYRQATGNERELVAVITVSGSSTYYADSVKGRFTISRDNAKNTVYLQMNSLKPEDTAVYYCARKTYYTGDFLGREYGYWGQGTQVTVSS” the “polyreactivity (PSR sort gate)” value was “low polyreactivity”.
With “QVQLVESGGGLFQAGGSLRLSCAASGRTFQVNAMAWYRHAPGKERELVAAISASDGSTYADSVKGRFTISRDNAKNTVYLQMNSLKPEDTAVYYCNKADYGGHRTSEQVGWVYLYDYWGQGTQVTVSS” the “polyreactivity (PSR sort gate)” value was “low polyreactivity”.
With “QVQLVESGAGLVQAGGSLRLCCAASGRIFDWYVMGWYRQAPGKEWELVAAINSGVSTKYADSVKGRFTISRDNAKNTVYLQMNSLKPEDTAVYYCAAQSFSDYRRTGRKSSYYYWGQVTQVTVSS” the “polyreactivity (PSR sort gate)” value was “low polyreactivity”.
In the case of “QVQLVESGGGLVQAGGSLRLSCAASGITLTKYAMGWYRQAPGKERELVAAISKRGTNTYYADSVKGRFTISRDNAKNTVYLQMNSLKPEDTAVYYCNAPGHRQNGLGDYWGQGTQVTVSS”, the “polyreactivity (PSR sort gate)” value is reported as “high polyreactivity”.
With “QVQLVESGGGLVQAGGSLRLSCAASGFTFDSYAMGWYRQAPGKERELVAAITWSGGSTYYADSVKGRFTISRDNAKNTVYLQMMSLKPEDTAVYYCNVYRYDGDYWGQGTQVTVSS” the “polyreactivity (PSR sort gate)” value was “high polyreactivity”.
With “QVQLVESGGGLVQAGGSLRLSCAASGSIFTQYAMGWYRQAPGKERELVARITGSGGRTYYADSVKGRFTISRDNAKNTVYLQMNSLKPEDTAVYYCAARDVRPYYVKPPVRYYYWGQGTQVTVSS” the “polyreactivity (PSR sort gate)” value was “high polyreactivity”.
For “QVQLVESGGGLVQAGGSLRLSCAASGSIFTGYAMGWYRQAPGKERELVARITKRGGSTYYADSVKGRFTISRDNAKNTVYLQMNSLKPEDTAVFYCNADRKFPYGSYETHDYWGQGTQVTVSS”, the “polyreactivity (PSR sort gate)” value was “high polyreactivity”.
In the case of “QVQLVESGGGLVQAGGSLRLSCAASGRIFTRNAMGWYRQAPGKEREFVAAISWSGGSTYYADSVKGRFTISRDNAKNTVDLQMNSLKPEDTAVYYCSAKNSGGYVSWYDYWGQGTQVTVSS”, the “polyreactivity (PSR sort gate)” value is reported as “low polyreactivity”.
In the case of “QVQLVESGGGLVQAGGSLRLSCAASGSTFDSNAMGWYRQAPGKERELVAASDWSGGSTYYADSVKGRFTISRDNAKNTVYLQMNSLNPEDTGVYYGDADDSSINYGDFDYWGQGTQVTVTS”, the “polyreactivity (PSR sort gate)” value is reported as “low polyreactivity”.
In the case of “QVQLVESGGGLVQAGGSLRLSCAASGFIFYSNAMGWYRQAPGKARELVAAISWGGGRTYYADSVKGRFTISRDNAKNTVYLQMNSLKPEDTAVYYCAADTIVGNGIKFDYWGQGTQVTVSS”, the “polyreactivity (PSR sort gate)” value is reported as “high polyreactivity”.
For “QVQLVESGGGLVQAGGSLRLSCAASGSIISRNAMGWYRQAPGKERELVATIRYRGGSTYYADSVKGRFTISRDNAKNTVYLQMNSLKPEDTAVYYCAARRSHPPDPRFRYGYWGQGTQVTVSS”, the “polyreactivity (PSR sort gate)” value was “high polyreactivity”.
With “QVQLVESGGGLVQAGGSLRLSCAASGGTFQQHAMGWYRKAPGTERELVAAISRSGGNTYYADSVKGRFTISRDNSKNTVYFQMNSLKPEDTAVYSCAVVSSSQYSRYTSQWKEYYWGKGTQVTVSS” the “polyreactivity (PSR sort gate)” value was “low polyreactivity”.
For “QVQLEDSGGGLVQAGGTHSLSCAASGFTFARNTMGWYRQAPGKERELVAAISWRGGRTYYADSVTGRFTISRDNAKNTDYLQMNRLKPEDRAVYYCNGVILKLGDALYDYWGEGTQVTVSS”, the “polyreactivity (PSR sort gate)” value was “high polyreactivity”.
In the case of “QVQVVESGGGLVQAGGSLRLSCAASGFTFAVYAMGWYRQAPGKERELVAAISRSGTRTYYADSVKGRFTISRDNAKNTVYVQMNSLKPEDTAVYYCAADKYRHGYDYWGQGTQVTVSS”, the “polyreactivity (PSR sort gate)” value is reported as “low polyreactivity”.
With “QVQLEESGGGLVQAGGSLRLSCAASGSILPKYDMGWSRQAPGKERELVAAITRTGGRTYYADSVKGRFTISRDYAKNTVYLQMNSLKPEDTAVYFCAVRGFFWSTRSYRIRSEYDYWGQGTQVTVSS” the “polyreactivity (PSR sort gate)” value was “low polyreactivity”.
For “QVQLVESGGGLVQAGGSLRLSCDASGFIFPYYAMGWYRQAPGKERELVARITRGGRTYYADSVKGRFTISRDNAKNTVYLQMNSLKPEDTAVYYCATTGSSYFHSFEYDYWGQGTQVTVSS”, the “polyreactivity (PSR sort gate)” value was “low polyreactivity”.
For “QVQLVESGGGLVQAGGSLRLSCAASGFTLGRYAMGWYRQAPGKERELVAAISSGGRTYYADSVKGRFTISRDNAKNTVYLQMNSLKPEDTAVYYCAADPRYISYDYWGQGTQVTVSS”, the “polyreactivity (PSR sort gate)” value was “low polyreactivity”.
With “QVQHVESVGGLVQAGGSLRLSCAASVSTFYFYAMGWYRQAPGKERELVAVISSGGRTYYADSVKGRFTISRDKAKNTVYLQMNSLKPEDTAVYYCAASWPSSLTYYYWGQGTQVTVSS” the “polyreactivity (PSR sort gate)” value was “low polyreactivity”.
In the case of “QVQLVESGGGLVQAGGSLRLSCAASGMIFKYYVMGWYRKAPGKERELVDDIRCSGGITSYADSVKGRFTISRDNAKNTVYLQMNSLKPEDTAVYYCAVAHSRLRTAYTFSVQRYDYWGQGTQVTVSS”, the “polyreactivity (PSR sort gate)” value is reported as “low polyreactivity”.
For “QVQLVESGGGLVQAGGSLRLSCAASGRTFRYNTMGCYRQAPGKERELVAAITKGAASTYYADSVKGRFTISRDNAKNTVYLQMNSLKPEDTAVYYCNAVYSRIVTQKYWGQGTQVTVSS”, the “polyreactivity (PSR sort gate)” value was “high polyreactivity”.
In the case of “QVQLVESGGGLVQAGGSLRLSCAASGSIFYRNTMGWYRQAPGKERELVAAITSGGGTNYADSVKGRFTISRDNAKNTVYLQMNSLKPEDTAVYYCAASRQYTVGFYSWGQGTQVTVSS”, the “polyreactivity (PSR sort gate)” value is reported as “high polyreactivity”.
